Like-named read-outs stand apart in the source and are kept apart here.
Tests used:
Assay in all cases: EMSA
[1] = biological target: T1, Slx5-Slx8 complex, Slx8 subunit;Slx5 (Saccharomyces cerevisiae;Saccharomyces …, UniProt P40072;P32828 1-274;1-619, |)
T1 sequence 1: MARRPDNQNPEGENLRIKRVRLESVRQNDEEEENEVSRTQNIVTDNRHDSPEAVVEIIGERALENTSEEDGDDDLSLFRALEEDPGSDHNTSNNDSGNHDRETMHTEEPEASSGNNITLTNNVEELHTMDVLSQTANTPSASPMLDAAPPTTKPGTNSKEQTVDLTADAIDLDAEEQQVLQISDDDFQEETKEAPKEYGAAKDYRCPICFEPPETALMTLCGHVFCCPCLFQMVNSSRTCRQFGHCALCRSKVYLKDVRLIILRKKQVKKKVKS
T1 sequence 2: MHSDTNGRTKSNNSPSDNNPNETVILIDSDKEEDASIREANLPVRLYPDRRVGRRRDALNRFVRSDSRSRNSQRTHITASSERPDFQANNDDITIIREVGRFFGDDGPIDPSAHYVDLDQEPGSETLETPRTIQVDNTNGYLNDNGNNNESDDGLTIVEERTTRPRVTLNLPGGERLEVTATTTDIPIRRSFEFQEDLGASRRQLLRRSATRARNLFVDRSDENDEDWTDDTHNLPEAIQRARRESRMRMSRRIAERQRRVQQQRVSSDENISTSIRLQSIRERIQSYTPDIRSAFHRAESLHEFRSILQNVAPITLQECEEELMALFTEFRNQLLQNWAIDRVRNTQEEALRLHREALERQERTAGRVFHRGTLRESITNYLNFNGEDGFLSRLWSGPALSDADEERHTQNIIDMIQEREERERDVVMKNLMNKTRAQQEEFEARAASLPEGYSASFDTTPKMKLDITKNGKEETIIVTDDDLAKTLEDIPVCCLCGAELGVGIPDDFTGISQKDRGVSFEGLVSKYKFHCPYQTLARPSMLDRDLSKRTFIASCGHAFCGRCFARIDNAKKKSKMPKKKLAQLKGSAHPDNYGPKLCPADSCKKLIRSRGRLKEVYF

[2] = biological target: T1, Slx5-Slx8 complex, Slx8 subunit;Slx5; remark: listed apart in the source
[3] = biological target: T2, Slx8 (Saccharomyces cerevisiae, UniProt P40072 1-274)
T2 sequence: T1 sequence 1

[4] = biological target: T1, Slx5-Slx8 complex, Slx8 subunit;Slx5; remark: listed apart in the source
[5] = biological target: T3, Slx5 (Saccharomyces cerevisiae, UniProt P32828 1-619)
T3 sequence: T1 sequence 2

[6] = biological target: T1, Slx5-Slx8 complex, Slx8 subunit;Slx5; remark: listed apart in the source
[7] = biological target: T1, Slx5-Slx8 complex, Slx8 subunit;Slx5; remark: listed apart in the source

B1: 30 bp dsDNA (1313/1314) (dsDNA)
DNA 1: TGGCGTTAGGAGATACCGATAAGCTTCGGC
DNA 2: GCCGAAGCTTATCGGTATCTCCTAACGCCA
binding result [1]: binds

GACGCTGCCGAATTCTGGCGTTAGGAGATACCGATAAGCTTCGGCTTAA (ssDNA) [49 nt ssDNA (888)]
binding result [2]: no binding

B2: 45 bp dsDNA (1315/1316) (dsDNA)
DNA 1: GGGTCAACGTGGGCAAAGATGTCCTAGCAAGCCAGAATTCGGCAG
DNA 2: CTGCCGAATTCTGGCTTGCTAGGACATCTTTGCCCACGTTGACCC
apparent K (half saturation) [3]: ~8 pmol (in reaction; standard volume 20 uL) | apparent K (half saturation) [4]: < 0.5 pmol (in reaction; standard volume 20 uL) | binding result [5]: no binding

B3: 90 bp dsDNA (1317/1319) (dsDNA)
DNA 1: GATCCGAATTCTGGCTTGCTAGGACATCTTTGCCCACGTTGACCCGGGTTGGCGTTAGGAGATAGTCAGTTATAGCTGCGGCTGCTAAGG
DNA 2: GATCCCTTAGCAGCCGCAGCTATAACTGACTATCTCCTAACGCCAACCCGGGTCAACGTGGGCAAAGATGTCCTAGCAAGCCAGAATTCG
binding result [6]: binds

B4: 15 bp dsDNA (1312/1320) (dsDNA)
DNA 1: TATCTCCTAACGCCA
DNA 2: TGGCGTTAGGAGATA
binding result [7]: no binding

From PMC1635298
